How the values were obtained:
[1] = system: GLI-dependent firefly luciferase activity in Shh-LIGHT2 cells; experiment: GLI-dependent luciferase assay in Shh-L2 cells; assay type: cell-based, mouse; conditions: for enhancement of transcriptional activity of overexpressed GLI1: cotransfected with GLI1, Shh-L2 cells; for enhancement of transcriptional activity of overexpressed GLI2: cotransfected with GLI2, Shh-L2 cells
Experimental: Cells were transfected by the expression constructs or respective empty vectors using Polyethylenimine transfection agent (PEI) (Inbio) and as described in [28]. We used 0.25 μg of cDNA per 1 cm^2 of plate surface area for transfections. After 3 h of transfection HEK293, NIH3T3 and Cos1 cells were propagated in the normal growth medium for 48 h. Prior the further analysis the cells were washed twice with PBS. Post-transfectional Shh-L2 cells were grown in the normal growth medium for 24 h and for additional 24 h in the Light medium containing 0.25% FBS, washed once with PBS, lysed in Passive Lysis Buffer (Promega, Madison Wis., USA) (70 ul per well of 24-well plate format) and subjected to luciferase assay.
Luciferase assay was performed as previously described. Briefly, firefly luciferase activity of 12 μl of the Shh-L2 cells lysate was measured using Luciferase Assay Kit (Promega) and galactosidase activity was quantified using Galacto-LightPlus kit (Tropix, Bedford Mass., USA) according to the manufacturer's instructions. Chemiluminicence was measured using Ascent FL Fluoroscan (Thermo Electron Corporation, Waltham Mass., USA) according to the manufacturer's instructions.
We cotransfected the constructs together with GLI-expressing plasmids (or respective empty vector) into Shh-L2 cells and assessed their effect on GLI-dependent firefly luciferase activity. The obtained data was normalized with β-galactosidase values. […] It was able to stimulate the luciferase activity 3.8 times and enhanced the transcriptional activity of over expressed GLI1 and GLI2 approximately 2 and 3.2 times, respectively. The potency of STK36 in the assay was much lower.
In order to examine if the kinase activity of ULK3 is required for the luciferase reporter activation we tested the supposed kinase-deficient variants of ULK3, ULK3(K44R) and ULK3(K139R) in the same assay. […] We also tested the effect of ULK3 and the mutants on the luciferase reporter when the SHH pathway was activated by cotransfection with pShhN (plasmid expressing biologically active part of SHH).

[2] = system: GLI1 mRNA expression in HEK293 cells; experiment: Quantitative RT-PCR of endogenous GLI1 mRNA expression; assay type: cell-based, human; conditions: normalized by HPRT; for induction of endogenous GLI1 expression: 72 h; for endogenous GLI1 expression level relative to empty vector: FIG. 5B
Experimental: HEK293 cells were transfected with FLAG-tagged wt ULK3, ULK3(K139R) or respective empty vector in two replicates. After 5 h of incubation one replicate of cells transfected with the vector was induced by SHHC24II. The cells were incubated 24 h and 72 h, washed with PBS. Total RNA was isolated and treated with DNaseI using RNAqueous kit (Ambion) according to manufacture's instructions. cDNA of 2 μg total RNA was synthesised using SuperScript III kit (Ambion). Levels of GLI1 mRNA and mRNA of housekeeping gene HPRT used for normalization were detected in triplicates by quantitative Real-Time PCR. The following GLI1 primers were used for the assay: […]
HEK293 cells were transfected by ULK3 or respective empty vector. Cells transfected with empty vector were induced by 12 nM of SHHC24II and were used as a posititve control. Cells were incubated 24 h and 72 h, and total RNA was isolated. Level of GLI1 expression was measured using QRT-PCR procedure and the obtained data was normalized by expression of housekeeping gene HPRT. Level of GLI1 expression in cells transfected with empty vector was taken as 1.

ULK3 = experiment: In vitro kinase assay, autophosphorylation; assay type: biochemical, human; conditions: FLAG-tagged protein immunopurified from HEK293 cells, γ-P32-ATP
Experimental: HEK293 cells were transfected with 13.5 μg of FLAG-tagged constructs expressed GLI1, GLI2, GLI3, ULK3, ULK3(K44R), ULK3(K139R) or FLAG-CMV-4 empty vector on 10 cm plates. The cells were lysed with 0.5 ml of Lysis Buffer (50 mM Tris HCl, pH 7.4, 150 mM NaCl, 1 mM EDTA, 1% Triton X-100) containing protease inhibitor cocktail (PIC) (Roche Applied Science). The lysates were centrifuged for 15 min at 4° C. and 15000 g, and the supernatants were used for immunoprecipitation (IP). IP was performed using anti-FLAG-M2 affinity gel (Sigma-Aldrich) in batch format according to the manufacture's instructions. Immune complexes were washed three times with 500 μl of Kinase Buffer (KB) (50 mM HEPES, pH 7.4, 20 mM MgCl2, 25 μM ATP) and resuspended in 12.5 μl of KB. One fifth of the immuno-complexes was subjected to WB and the rest was used for the kinase assay.
Kinase reactions were carried out in KB in a total volume of 20 μl of in the presence of 1 μCi of [γ-^32P]ATP per reaction. We used 1 μl of the immunoprecipitated ULK3, ULK3(K44R) or ULK3(K139R) mixed with 5 μl of the GLI-M2 immunocomplexes or 5 μl of bacterially expressed and purified His-GLI1 fragments. Kinase reactions were held at 30° C. for 30 min and terminated by adding of 5 μl of 4× Laemmli Sample Buffer. Proteins were resolved by SDS-PAGE. The gel was dried at 80° C. for 2 h, and autoradiography was performed using Bio-Rad Personal Molecular Imager FX.
To test if ULK3 has an autophosphorylation activity, we expressed FLAG-tagged wild-type ULK3 and mutants ULK3(K44R) and ULK3(K139R) in HEK293 cells, immunopurified and subjected to in vitro kinase assay in the presence of γ-P^32-ATP.

B1: ULK3: human serine/threonine kinase, 472 amino acids (SEQ ID NO: 1), overexpressed from cloned cDNA or immunopurified FLAG-tagged (protein, listed as Homo sapiens)
chain: MAGPGWGPPRLDGFILTERLGSGTYATVYKAYAKKDTREVVAIKCVAKKSLNKASVENLLTEIEILKGIRHPHIVQLKDFQWDSDNIYLIMEFCAGGDLSRFIHTRRILPEKVARVFMQQLASALQFLHERNISHLDLKPQNILLSSLEKPHLKLADFGFAQHMSPWDEKHVLRGSPLYMAPEMVCQRQYDARVDLWSMGVILYEALFGQPPFASRSFSELEEKIRSNRVIELPLRPLLSRDCRDLLQRLLERDPSRRISFQDFFAHPWVDLEHMPSGESLGRATALVVQAVKKDQEGDSAAALSLYCKALDFFVPALHYEVDAQRKEAIKAKVGQYVSRAEELKAIVSSSNQALLRQGTSARDLLREMARDKPRLLAALEVASAAMAKEEAAGGEQDALDLYQHSLGELLLLLAAEPPGRRRELLHTEVQNLMARAEYLKEQVKMRESRWEADTLDKEGLSESVRSSCTLQ
modifications: PEPTIDE (1)..(472) ULK3
enhancement of transcriptional activity of overexpressed GLI1 [1]: approximately 2 times | enhancement of transcriptional activity of overexpressed GLI2 [1]: ~3.2 times | induction of luciferase activity with activated SHH pathway ([1]; cotransfection with pShhN, Shh-L2 cells): approximately 4.1 times | stimulation of GLI-dependent luciferase activity ([1]; kinase construct alone, Shh-L2 cells, normalized with β-galactosidase): 3.8 times | induction of endogenous GLI1 expression [2]: able to induce | endogenous GLI1 expression level relative to empty vector [2]: approximately 6 times | autophosphorylation activity (ULK3): strong autophosphorylation activity

B2: ULK3(K139R): kinase-deficient ULK3 mutant with Lysine at position 139 mutated to Arginine (SEQ ID NO:7) (protein)
chain: MAGPGWGPPRLDGFILTERLGSGTYATVYKAYAKKDTREVVAIKCVAKKSLNKASVENLLTEIEILKGIRHPHIVQLKDFQWDSDNIYLIMEFCAGGDLSRFIHTRRILPEKVARVFMQQLASALQFLHERNISHLDLRPQNILLSSLEKPHLKLADFGFAQHMSPWDEKHVLRGSPLYMAPEMVCQRQYDARVDLWSMGVILYEALFGQPPFASRSFSELEEKIRSNRVIELPLRPLLSRDCRDLLQRLLERDPSRRISFQDFFAHPWVDLEHMPSGESLGRATALVVQAVKKDQEGDSAAALSLYCKALDFFVPALHYEVDAQRKEAIKAKVGQYVSRAEELKAIVSSSNQALLRQGTSARDLLREMARDKPRLLAALEVASAAMAKEEAAGGEQDALDLYQHSLGELLLLLAAEPPGRRRELLHTEVQNLMARAEYLKEQVKMRESRWEADTLDKEGLSESVRSSCTLQ
modifications: MUTAGEN (1)..(472) mutated ULK3 protein ULK3 (K139R)
enhancement of transcriptional activity of overexpressed GLI1 [1]: neither of the mutants had an effect | enhancement of transcriptional activity of overexpressed GLI2 [1]: completely inactive | induction of endogenous GLI1 expression [2]: failed to activate | endogenous GLI1 expression level relative to empty vector [2]: failed to activate | autophosphorylation activity (ULK3): almost completely absent
